The nanobody polyreactivity screen of Harvey et al. (2022)

Assay: yeast display, Sf9 membrane polyspecificity reagent, FACS + sequencing; frameworks hold sequencing errors
How it was run: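 After 36–48 hours of galactose induction, yeast (Saccharomyces cerevisiae BJ5465) displaying a synthetic nanobody library were stained at 4 °C for 1 hour with 10% biotinylated, detergent-solubilized Sf9 membrane reagent. Streptavidin microbeads enriched the stained cells before FACS sorting into low and high (top ~1%) gates on anti-HA and streptavidin fluorescence. Each clone's polyreactivity label reflects its gate of origin.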

Sequence	polyreactivity (PSR sort gate)
QVQLVESGGCLVQAGGSLRLSCAASGIIFQGYVMGWYRQAPGKEREFVAAISRSGGTTFYADSVKGRFTISRDNAKNTVYLQMNSLKPVDTAVYSCNRARLGRPGYDYWGQGTQVTVTS	high polyreactivity
QVQLVESGGCLVQAGGSLRLSCAASGLIFRLYAMGWYRQAPGKERELVAAISVSGAITYYADSVKGRFTISRDKAKNTVYLQMNSLKPEDTAVYYCNAEAVFGRDGYVYWEVDYWGQGTQVTVSS	low polyreactivity
QVQLVESGGCLVQAGGSLRLSCAASGLTFAENAMGWYREAPGKERELVAAISASGGSTYYADSVKGRFTSSRDNAKNTVYLQMNSLKPEDTAVYYCATRVAFLWPRRDYDYWGQGTQVNVSS	low polyreactivity
QVQLVESGGCLVQAGGSLRLSCAASGRIFGSYAMGWYRHPPGKERELVAAISGSGGRTYYADSVKGRFTISRDNAKNTVYLQMNSLKPEDTAVYYCAADSQSFGYGYWGQGTQVTVSS	high polyreactivity
QVQLVESGGCLVQAGGSLRLSCAASGRIFGYYARGWYRQSAGKERELVAAITRNGGSTYYADSVKGRFTISRDNAKNTVYIQMISLKPVDTAVYYCYATKGGGRGYWCQGTQVTVSS	high polyreactivity
QVQLVESGGCLVQAGGSLRLSCAASGRIFPGYAMGWYRQAPGKEREFVAAITASGGTTYYADSVKGRFTISRDNAKNTVYLQMNSLKPEDTAVYYCAKYRYTVAGYNYWGQGTQVTVSS	high polyreactivity
QVQLVESGGCLVQAGGSLRLSCAASGRMFWSNARGWYRQARGYERELVAAMRNTGSTYYADSVKGRFTISRDNAKNTVYLQMNSLKPEETAVYYCATKPYPYYLYYYWGQGTQVTVSS	high polyreactivity
QVQLVESGGCLVQAGGSLRLSCAASGRTFFGYAMGWYRQAPGKERELVAALTRGGSTNYADSVKGRFTFSRDNAKNTVYLQMNSLKPEDTAVYYCNAERYRSRRYPYRYLYYYWGQGTQVTVSS	high polyreactivity
QVQLVESGGCLVQAGGSLRLSCAASGRTFFNYGMGWYRQAPGKEREFVARISFSGGSTYYADSVKGRFTISRDNAKNTVFLQMNSLIPEDTAVYYCNARVFPVAYRYGYWGQGTQVTVSS	high polyreactivity
QVQLVESGGCLVQAGGSLRLSCAASGRTFRYYAMGWYRQAPGKERELVAAITGGGGSTYYADSVKGRFTISRDNAKNTVYLQMNSLKPEDTAVYYCNKLRYKQWGAQYPMDYWGQGTQVTVSS	high polyreactivity
QVQLVESGGCLVQAGGSLRLSCAASGRTFSRNAMGWYRQAPGKERELVAAISQRGVYTYYADSVKGRFTISRDNAKNTVYLQMNRLKPEDSAVYYCNTRGTYRYDYWGQGTQVTVSS	low polyreactivity
QVQLVESGGCLVQAGGSLRLSCAASGRTFVGYVMGWSRQAPGKERELVAAIRTGGRTHYADSVKGRFTISRDNAKNTVYLQMNSLKPEDTAVYYCNARASYSWHGIRGNYDYWGQGTQVTVSS	high polyreactivity
QVQLVESGGCLVQAGGSLRLSCAASGRTFYGNDMGWYSQAPGTERELVAAISSSGGSTYYADSVKGRGTISRDNGKNTVYLQMKSLKPEDTAVYYCNAYWRGFRLSYYEDSYYWGQGTQVTVSS	high polyreactivity
QVQLVESGGCLVQAGGSLRLSCAASGRTFYINTMGWYRQAPGKEREFVAAIRFSSDSTYYADSVKGRYTISRDNAKNTVYLQMNSLKPEDTAVYYCATRTYAQRYGYWGQGTQVTVSS	high polyreactivity
QVQLVESGGCLVQAGGSLRLSCAASGRTFYTYAIGWYRQAPGQERELVAGIRTGGGSTYYADSVKGRFTISRDNAKNTVYLQMNSLKPEDTAVYYCAADTYDGYDYWGQGTQVTVSS	low polyreactivity
QVQLVESGGCLVQAGGSLRLSCAASGSIFNRYTMGWYRQAPGKEREFVAAISSSGTSTYYADSVKGRFTISRDNAKNTVYLQMNILKPEDTAVYYCAADWTGGFYTWYVIPYDYWGQGTQVTVSS	low polyreactivity
QVQLVESGGCLVQAGGSLRLSCAASGSIFRRNAMGWSRQAPGKERELVAAISRTGGSTYYADSVKGRFTISRDNAKNTVYLQLNSLKPEDTAVYYCNTYSDYADDDYWGQGTQVTVSS	high polyreactivity
QVQLVESGGCLVQAGGSLRLSCAASGSIFSSYQMGWYRQAPGKQRELVEAISSGGSTNYADSVKGRFTISRDNAKNTVYLQMHRLKPEDTAVYYCNVDLFNWGGDSTGYDYWGQGTQVTVSS	low polyreactivity
QVQLVESGGCLVQAGGSLRLSCAASGSIIYCYAMGWYRQAPGKERELVADISRGGITYYADSVKGRFTISRDNAKNTVYLQMNSLKPEDTAVYYCSKTHYGVQRLDSWGQGTQVTVSS	low polyreactivity
QVQLVESGGCLVQAGGSLRLSCAASGSIMYSYAMAWYRQAPGQERELVAAITGDGASTNYADYVKGRFTISRDNAKNTVYLQMNSLKPEDTAVYYCNAGRESDDVYEGSQRIGQFDYWGQGTQVTVSS	low polyreactivity
QVQLVESGGCLVQAGGSLRLSCAASGSTFGVNAMGWYRKAPGKERELVADISVRTDSTYYADSVKGRFTISRDNAKNTVYLQMNSLKAEDTAVYDCNAGLVIEYDYWGQGTQVSVSS	low polyreactivity
QVQLVESGGCLVQAGGSLRLSCAASGSTFLGNAMGWYRQAPGKERELVAGITSGGTTNYADSVKGRFTISRDNAKNTVYLQMNSLKPEDTAVYYCNADVWIGQLFDPGYDFDYWGQGTQVTVSS	low polyreactivity

Sequence	polyreactivity (PSR sort gate)
QVQLVESGGCLVQAGGSLRLSCAASGSTFPIYAMGWYRQAPGKERELVARITWNGGRTYYADSVKGRFTISRDNAKNTVYLQMNSLKPEDTAVYYCNALYYHNLEGNYWGQGTQVTVSS	high polyreactivity
QVQLVESGGCLVQAGGSLRLSCAASGSTFTPYVMGWYRHAPGKERELVAAISKRGGSTYYADSVKGRFTISRDNAKNTVYLQMNRLKPEDTAVYYCAAVQPAWGNGYWGQGTQVTVSS	high polyreactivity
QVQLVESGGCLVQAGGSLRLSCAASGSTFYLNAMGWYRQAPGKEREMVAAITVSGGSTYYADSVKGRFTISRDNAKNTVYLQMNSLKPVDTAVYFCSRELLCPTYQRWYYYWGLGTQVTVSS	low polyreactivity
QVQLVESGGCLVQAGGSLRLSCAASGSTLGYYVMGWYRQAPGKERELFAAITGCGSTDYADSVKGRFTISRDNAKNTVYLQMNSLIPEDTAVYYCAAERTRTGQLFWWGPIYDYWGQGTQVTVSS	low polyreactivity
QVQLVESGGCLVQAGGSLRLSCAASGSTLVIYAMGWYRQAPGKESELVAAINFSDGSTSYADSVKGRFTISRDNAKNTVYLQMNSLKPEDTAVYYCAADWWYGYSNYDYWGQGTQVTVSS	low polyreactivity
QVQLVESGGCLVQAGGSLRLSCAASGYIFYGYAMGWYRQAPGKERELVAAITVRGGSTYYADSVKGRFRISRDNAKNTVYLQMNSLKPQDTAVYYCAAAPQFTFGVGYWGQGTQVTVSS	low polyreactivity
QVQLVESGGCLVQAGGSLRLSCAASGYTIRYYSMGWYRQAPGKERELVAAISYSGGSTYYADSVKGRFTISRDNAKNTVYLQMNIMKPEDTAVYYCDAGFSLYLGFEYWGQGTQVTVSS	high polyreactivity
QVQLVESGGCLVQAGGSLRLSCAATGSTLGSYAMGWYRQAPGKERELVAAITFLGGSTYYADSVKGRFTSSRDNAKNTVYLQMNSLKPEDSAVYYCAARFLRVLFNLVFIYDYWGQGSQVTVSS	high polyreactivity
QVQLVESGGCLVQAGGSLRLSCADSGIIYYYYAMGWYRQAPGKERELVAAISTSGGRTYYADSVKGRFTISRDNAKNTVYLQMNSLKPEDTAVYYCAADYLKGEEDYWGQGTQVSVSS	low polyreactivity
QVQLVESGGCLVQAGGSLRLSCASSGNIFTIYTMGWYRQAPGKERELVASIYRGGTTYYADSVKGRFTISRDNAKNTVYLQMNSLKPEDTAVYYCAVYSPRLRRVHTRGYWGQGTQVTVSS	high polyreactivity
QVQLVESGGCLVQAGGSLRLSCASSGRIFRGYAMGWSRQAPGKERELVAVISYSGTRTYYADSVKGRFTNSRDIAKNTVYLQMNSLKPEETAVYYCNARANGFKDGYWGQGTQVTVSA	high polyreactivity
QVQLVESGGCLVQAGGSLRLSCDASGSTFLTNTMGWYRQPPGKERELVAAISSGDSTYYADSVKGRFTISRDNAKNTVYLQMNSLKPEVTAVYYCARDVGWRNVPRDYWGQGTQVTVSS	low polyreactivity
QVQLVESGGCLVQAGGSLRLSCPASGFTLPANGMGWYRQAPGKERELVAAISFIAGSTYYADSVKGRFTISRDNAKNTVYLQMNSLKPEDTEVYYCATQFPPSTIYDYWGQGSQVTVSS	low polyreactivity
QVQLVESGGCLVQAGGSLRLSGAASGRTQVPYAMGWSRQAHGNERELVASISSGGSTNYADSVKGRFTISRDNAKNTVYLQMNSLKPEDTAVYYCNAEPIGSEVDYWGQGTQVTVAS	low polyreactivity
QVQLVESGGCLVQAGGSLRLSWAASGRTLGGYALGWYRQAPGKERELVAAINRSGTRTYYADSVKGRFTISRDKAKNTVYLQFNSLKPEDTAVYYCAASWYPGSRNYDYGGQGTQVTVSS	high polyreactivity
QVQLVESGGCLVQAGGSLRLTCAASGRIFDLYTMGWYRQATGIERELVAGIYGNGDGTYADSVKGLFTISRDNAKNPVYLQMNSLKPEDTAVYYCAADGIYIYHPYTRFDYCGQGTQVTVSS	low polyreactivity
QVQLVESGGCLVQAGGSLRLTCAASGRIFRGNVMGWYRQAPGKERELVAAISGRGGNTYYADSVKGRFTISRDNAKNTVYLQMNSLKPEDTAVYYCAATRKDDYQYGYWGQGTQVTVSS	high polyreactivity
QVQLVESGGCLVQAGGSLRLTCAASGSTFDRKARGWYRQAPGKERELVAAITKSGGSTYYADSVKGRFTISRDNAKNTVYLQMNSLKPEDTAVYYCKEFYRAVYPYYYWGQGTQVTVSS	low polyreactivity
QVQLVESGGCLVQAGGSLRLTCAASGSTFGYEGRGWYRQAPGKERELVASIDSRCDSTYADSVKGRFTISRDNAKNTVYLQMNSLKPEDTAVYYCAADSWYTWFDSWGQGTQVTVSS	low polyreactivity
QVQLVESGGCLVQAGGSLSLSCAASGSTFPYPYTIGWYRQAPGKERELVAVISRTGGSTFYADSVKGRFTISRDNAKNTVFLQINSLKPEDTAVYYCARQRYEYRTTYYYWGLGTQVTVSS	high polyreactivity
QVQLVESGGCLVQAGGTLRLSCAASGFIFYHNAMGWYRQAPGKERELVAAISGSGGSTHYADSVKGRFTISRDNAKNSVYLQMNSLKPEDTAVYYCARRFWFHYYGYDYWGQGSQVTVSS	high polyreactivity
